{
  "source": "patent US20240100133",
  "tested_on": "Granzyme A wild type, recombinant human, His-tagged (GzmA-WT)",
  "sequence (chain, as listed by the source)": "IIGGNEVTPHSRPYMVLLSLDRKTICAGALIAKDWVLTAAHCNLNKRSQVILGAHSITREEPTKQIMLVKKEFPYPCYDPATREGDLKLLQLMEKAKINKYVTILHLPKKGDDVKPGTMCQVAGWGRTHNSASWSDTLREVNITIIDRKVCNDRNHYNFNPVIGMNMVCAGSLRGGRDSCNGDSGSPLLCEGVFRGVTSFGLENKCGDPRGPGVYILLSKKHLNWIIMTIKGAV",
  "data": [
    {"substance": "human recombinant PDIA1 (Protein Disulfide Isomerase A1, residues 18-479, N-terminal His-tag)", "values": [
      {"measurement": "conversion of GzmA homodimer into the 27 kDa monomer (silver stain and anti-GzmA western blot)", "value": "they incubated GzmA-WT with PDIA1 and observed the monomeric band at 27 KDa, which was not present when heat-inactivated PDIA1 was used"}
    ]}
  ]
}
